# Experimental data: patent US20250281631A1 (SICHUAN KELUN BIOTECH BIOPHARMACEUTICAL, published 2025)
# Key:
# [1] = target: T1, human epidermal growth factor receptor 3 (HER3) (human, UniProt P21860 20-1342); experiment: flow cytometry on A431 cells
# T1 construct: whole, on cells; also called ErbB3; Erbb3
# Protocol: (§1) The affinity of anti-human HER3 ADC to MDA-MB-453, NCI-H358, KPL-4, and A431 cells was detected by flow cytometry (Beckman, model Cytoflex).
# (§2) Adherent MDA-MB-453, NCI-H358, KPL-4, A431 cells were digested with Tryple (manufacturer: Gibco) solution, counted, and an appropriate amount of the cells were taken, washed twice with 1×PBS, resuspended in 1% BSA in PBS solution, and then transferred to a 96-well sharp-bottom plate, 50 μl per well; candidate antibodies and drug conjugates thereof were diluted with 1% BSA in PBS solution by 3-fold or 2.5-fold serial dilution starting from 5 μg/mL, and then 50 μl of the diluted antibody or antibody-drug conjugate was added to the sharp-bottom plate containing the cells, and incubation was carried out at 4° C. for 40 minutes; the cells were washed twice with PBS, then added with 50 μl of diluted secondary antibody to each well, mixed, and incubated at 4° C. for 30 minutes; the cells were washed with PBS twice, then resuspended in 400 μl of PBS and detected by flow cytometry. Data processing: the average fluorescence signal values were exported, and then input into GraphPad Prism 6 software to calculate EC50.
# [2] = target: T1, human epidermal growth factor receptor …; experiment: cell-based or functional assay
# [3] = target: T1, human epidermal growth factor receptor …; experiment: flow cytometry on NCI-H358 cells
# Protocol: as §1, §2
# [4] = target: T1, human epidermal growth factor receptor …; experiment: flow cytometry on KPL-4 cells
# Protocol: as §1, §2
# [5] = target: T1, human epidermal growth factor receptor …; experiment: flow cytometry on MDA-MB-453 cells
# Protocol: as §1, §2
# [6] = target: T1, human epidermal growth factor receptor …; experiment: flow cytometry on MDA-MB-453 cells (second experiment, dilution from 15 ug/mL)
# Protocol: The affinity of anti-human HER3 ADC to MDA-MB-453 cells was detected by flow cytometry (Beckman, model Cytoflex).
# Adherent MDA-MB-453 cells were digested with Tryple (manufacturer: Gibco) solution, counted, and an appropriate amount of the cells were taken, washed twice with 1×PBS, resuspended in 1% BSA solution, and then transferred to a 96-well sharp-bottom plate, 50 μl per well; candidate antibodies and drug conjugates thereof were diluted with 1% BSA by 3-fold serial dilution starting from 15 μg/mL, and then 50 μl of the diluted antibody or antibody-drug conjugate was added to the sharp-bottom plate containing the cells, and incubation was carried out at 4° C. for 40 minutes; the cells were washed twice with PBS, then added with 50 μl of diluted secondary antibody to each well, mixed, and incubated at 4° C. for 30 minutes; the cells were washed with PBS twice, then resuspended in 200 μl of PBS and detected by flow cytometry. Data processing: the average fluorescence signal values were exported, and then input into GraphPad Prism 6 software to calculate EC50.
Binder,EC50 [1] [mg/L],"IC50 (nM), in vitro cytotoxicity (CCK8, 6 days) on HEK293T-hHER3 cells [2] [nM]",EC50 [3] [mg/L],EC50 [4] [mg/L],EC50 [5] [mg/L],EC50 [6] [mg/L],"IC50 (nM), in vitro cytotoxicity (CCK8, 6 days) on HCC1569 cells [2] [nM]","IC50 (nM), in vitro cytotoxicity (CCK8, 6 days) on MDA-MB-453 cells [2] [nM]"
"ADC 22B6-A-01 (antibody, human IgG1, kappa, V domains shown, drug-linker A-01 on a cysteine sulfhydryl group; LC-DAR1 ratio 0.990; drug-linker A-01 on cysteine sulfhydryl groups after TCEP reduction; mainly 3 per heavy chain (HC-DAR3 ratio 0.981)) VH: EVHLVESGGGVVQPGRSLRLSCATSGFTFRSYGMHWVRQAPGKGLEWVAVIWYDGSNKYYADSVKGRFTISRDISKNTLYLQMNSLTAEDTAVYYCARYYYDSNGYYDAFDIWGQGTMVTVSS VL: DIQLTQSPSFLSASVGDRVTITCRASQGISNYLAWYQQKPGKAPKLLIFAASTLQSGVPSRFSGSGSGAEFTLTISSLEPEDFATYYCQQLNSYPITFGQGTRLEIKR",0.0307,0.0014,0.0445,0.0387,–,–,–,–
"22B6D2-hIgG1 (antibody, V domains shown) VH: EVHLVESGGGVVQPGRSLRLSCATSGFTFRSYGMHWVRQAPGKGLEWVAVIWYDGSNKYYADSVKGRFTISRDISKNTLYLQMNSLTAEDTAVYYCARYYYDSNGYYDAFDIWGQGTMVTVSS VL: DIQLTQSPSFLSASVGDRVTITCRASQGISNYLAWYQQKPGKAPKLLIFAASTLQSGVPSRFSGSGSGAEFTLTISSLEPEDFATYYCQQLNSYPITFGQGTRLEIKR",–,–,–,–,0.0392,0.0854,–,–
"ADC 22B6-B-04-02 (antibody, human IgG1, kappa, V domains shown, drug-linker B-04 on cysteine sulfhydryl groups after TCEP reduction (overall DAR 6.87; split between the chains not given), Antibody-drug conjugate of 22B6D2-hIgG1 with drug-linker B-04; also called 22B6-B-04-2) VH: EVHLVESGGGVVQPGRSLRLSCATSGFTFRSYGMHWVRQAPGKGLEWVAVIWYDGSNKYYADSVKGRFTISRDISKNTLYLQMNSLTAEDTAVYYCARYYYDSNGYYDAFDIWGQGTMVTVSS VL: DIQLTQSPSFLSASVGDRVTITCRASQGISNYLAWYQQKPGKAPKLLIFAASTLQSGVPSRFSGSGSGAEFTLTISSLEPEDFATYYCQQLNSYPITFGQGTRLEIKR",–,–,–,–,–,0.195,–,–
"ADC 22B6-B-01 (antibody, human IgG1, kappa, V domains shown, drug-linker B-01 on a cysteine sulfhydryl group; LC-DAR1 ratio 0.999; drug-linker B-01 on cysteine sulfhydryl groups after TCEP reduction; mainly 3 per heavy chain (HC-DAR3 ratio 0.933)) VH: EVHLVESGGGVVQPGRSLRLSCATSGFTFRSYGMHWVRQAPGKGLEWVAVIWYDGSNKYYADSVKGRFTISRDISKNTLYLQMNSLTAEDTAVYYCARYYYDSNGYYDAFDIWGQGTMVTVSS VL: DIQLTQSPSFLSASVGDRVTITCRASQGISNYLAWYQQKPGKAPKLLIFAASTLQSGVPSRFSGSGSGAEFTLTISSLEPEDFATYYCQQLNSYPITFGQGTRLEIKR",0.0328,–,0.0298,0.0519,–,–,–,–
"ADC 22B6-A-07-A-1 (antibody, human IgG1, kappa, V domains shown, drug-linker A-07-A on a cysteine sulfhydryl group; mainly 1 per light chain (LC-DAR1 ratio 0.998); drug-linker A-07-A on cysteine sulfhydryl groups after TCEP reduction; mainly 3 per heavy chain (HC-DAR3 ratio 0.966)) VH: EVHLVESGGGVVQPGRSLRLSCATSGFTFRSYGMHWVRQAPGKGLEWVAVIWYDGSNKYYADSVKGRFTISRDISKNTLYLQMNSLTAEDTAVYYCARYYYDSNGYYDAFDIWGQGTMVTVSS VL: DIQLTQSPSFLSASVGDRVTITCRASQGISNYLAWYQQKPGKAPKLLIFAASTLQSGVPSRFSGSGSGAEFTLTISSLEPEDFATYYCQQLNSYPITFGQGTRLEIKR",0.0284,0.0038,0.0329,0.0325,0.056,0.147,15.6,19
"U1-59 (HER3 control antibody) (antibody, V domains shown) VH: QVQLQQWGAGLLKPSETLSLTCAVYGGSFSGYYWSWIRQPPGKGLEWIGEINHSGSTNYNPSLKSRVTISVETSKNQFSLKLSSVTAADTAVYYCARDKWTWYFDLWGRGTLVTVSS VL: not shown",–,–,–,–,0.426,0.684,–,–
"ADC 47A3-A-07-A (antibody, human IgG1, kappa, V domains shown, drug-linker A-07-A on a cysteine sulfhydryl group; LC-DAR1 ratio 0.820; drug-linker A-07-A on cysteine sulfhydryl groups after TCEP reduction; HC-DAR3 ratio 0.760, HC-DAR0 ratio 0.222) VH: EVQLQESGPGLVKPSQTLSLTCAISGDSVSSSQSTWNWIRQSPSRGLEWLGRTFYRSRWYNDYALSMKSRITINPDTSKNQFSLQLNPVTPEDTAVYYCARDTYYYGSGGFDYWGQGSRVTVSS VL: DIQMTQSPSTLSASVGDRVTITCRASQSLSRWLAWYQQKPEKAPKLLIYKASSLESGVPSRFSGSGSGTEFTLTISTLQPDDFATYYCQQYKNYYSFGQGTKLEIKR",0.0656,–,0.158,0.125,–,–,–,–
"ADC 100H7-A-07-A (antibody, human IgG1, kappa, V domains shown, drug-linker A-07-A on a cysteine sulfhydryl group; LC-DAR1 ratio 1.000; drug-linker A-07-A on cysteine sulfhydryl groups after TCEP reduction; mainly 3 per heavy chain (HC-DAR3 ratio 0.989)) VH: EVQLVESGGGVVLPGRSLRLSCAASGFTFSRNAMHWVRQAPGKGLEWVAVIWHDGSNKYYGDSVKGRFTISRDNSKNTLYLQMDSLTAEDTAVYYCARDRGASDFRGQGTLVTVSS VL: DIQMTQSPSTLSASVGDRVTITCRASQSINNWLAWYQQKPEKAPKLLIYKASSLESGVPSRFSGSGSGTEFTLTISSLQPDDFATYYCQQYNSYSLTFGGGTKVEIKR",0.266,–,0.427,0.274,–,–,–,–
